27 sequences from the Immune Epitope Database (IEDB) can be followed below.

pKd: −log10 of the molar value.

One assay concerns the target HLA-B*08:01. Nature of the assay: IEDB peptide-MHC binding, purified MHC/competitive/radioactivity; filed as Kd, often an IC50 or EC50 that approximates it; ≥ and ≤ were set here for values at or beyond the usual limits of such assays. The note with it: source organism: Vaccinia virus WR.
Assay [1] concerns the target HLA-B*40:01. Nature of the assay: IEDB peptide-MHC binding, purified MHC/direct/fluorescence; filed as Kd, often an IC50 or EC50 that approximates it; ≥ and ≤ were set here for values at or beyond the usual limits of such assays. Particulars: source organism: Mycobacterium avium subsp. paratuberculosis.
Another assay addresses HLA-A*01:01. Nature of the assay: IEDB peptide-MHC binding, purified MHC/competitive/radioactivity; filed as Kd, often an IC50 or EC50 that approximates it; ≥ and ≤ were set here for values at or beyond the usual limits of such assays. Particulars: source organism: Dengue virus 3 Martinique/1243/1999.
Assay [2] concerns the target HLA-A*26:01. Described as above.
In the next assay the target is HLA-A*68:02. The description is as above.
Another assay addresses HLA-A*24:03. Nature of the assay: IEDB peptide-MHC binding, purified MHC/direct/fluorescence; filed as Kd, often an IC50 or EC50 that approximates it; ≥ and ≤ were set here for values at or beyond the usual limits of such assays. Particulars: source organism: Mycobacterium tuberculosis variant bovis.
The target in assay [3] is HLA-B*07:02. Nature of the assay: IEDB peptide-MHC binding, purified MHC/competitive/radioactivity; filed as Kd, often an IC50 or EC50 that approximates it; ≥ and ≤ were set here for values at or beyond the usual limits of such assays.
The next assay has as its target HLA-B*35:01. The assay is described as above.
For the next assay, the target named is HLA-A*02:06. The assay is described as above.
Assay [4] concerns the target HLA-B*07:02. Nature of the assay: IEDB peptide-MHC binding, purified MHC/direct/fluorescence; filed as Kd, often an IC50 or EC50 that approximates it; ≥ and ≤ were set here for values at or beyond the usual limits of such assays. The note with it: source organism: Homo sapiens.
Assay [5] has as its target HLA-A*26:01. Nature of the assay: IEDB peptide-MHC binding, purified MHC/competitive/fluorescence; filed as Kd, often an IC50 or EC50 that approximates it; ≥ and ≤ were set here for values at or beyond the usual limits of such assays. The note with it: source organism: Pan troglodytes.
The target in a further assay is HLA-B*15:01. The assay is described as above.
The target of assay [6] is HLA-B*51:01. The assay is described as above. Particulars: source organism: Pan troglodytes.
Assay [7] concerns the target HLA-B*51:01. Nature of the assay: IEDB peptide-MHC binding, purified MHC/competitive/radioactivity; filed as Kd, often an IC50 or EC50 that approximates it; ≥ and ≤ were set here for values at or beyond the usual limits of such assays.
In the next assay the target is HLA-B*18:01. The description is as above.
Assay [8] concerns the target HLA-B*40:01. The assay is described as above.
The target of a further assay is HLA-B*40:02. The assay is described as above.
Another assay concerns the target HLA-B*44:02. The description is as above.
The target of the next assay is HLA-B*44:03. Described as above.
The target in a further assay is HLA-B*45:01. The assay is described as above.
For the next assay, the target named is HLA-A*02:02. The description is as above. Particulars: source organism: Trypanosoma cruzi.
For another assay, the target named is HLA-A*02:03. Described as above. The note with it: source organism: Trypanosoma cruzi.
Where [9] appears, read: source organism: Dengue virus 3 Martinique/1243/1999.
The mark [10] stands for this setting: source organism: Dengue virus 4 Philippines/H241/1956.
[11] abbreviates: source organism: Dengue virus 1 Brazil/97-11/1997.
Where [12] appears, read: source organism: Dengue virus 2 Jamaica/1409/1983.
Setting [13] is: source organism: Mammarenavirus brazilense.
The mark [14] stands for this setting: source organism: Mammarenavirus juninense.
The mark [15] stands for this setting: source organism: SARS coronavirus Tor2.
Where [16] appears, read: source organism: Mammarenavirus lassaense.
[17] abbreviates: source organism: Trypanosoma cruzi.

A word on the pKd: it is the negative decadic logarithm of the Kd, by convention in mol/L. With NKKRFFSDV, in the assay with HLA-B*08:01, the negative logarithm of the Kd (pKd) is 5.06.

KEHKGVGFL had a pKd with HLA-B*40:01 [1] of 7.52.

Take ETMETLLLL: the negative logarithm of the Kd (pKd) was 4.94 with HLA-A*01:01, 7.02 with HLA-A*26:01 [2] (setting [9]) and 7.76 with HLA-A*68:02 (setting [9]).

Turning to SYYPDQKSL, the pKd with HLA-A*24:03 is 8.08.

Turning to TPPGATDPF, the pKd with HLA-B*07:02 [3] (setting [10]) was 5.97; in the assay with HLA-B*35:01 (setting [10]) it was 6.88.

Consider LPWTSGATT, for which the figures for the pKd in the assay with HLA-B*07:02 [3] (setting [9]) and with HLA-B*35:01 (setting [9]) were 7.59 and 5.89, respectively.

As to TVHADTGCAV, the pKd with HLA-A*68:02 (setting [10]) is 7.06.

With DLTDYLMKI, the pKd with HLA-A*68:02 (source organism: Homo sapiens) was 5.43.

For the sequence QLKDKADFCI, the pKd was not above 4.49 with HLA-A*02:06 (source organism: Homo sapiens) and 4.87 with HLA-A*68:02 (source organism: Homo sapiens).

Turning to KVRDRNFQL, the pKd in the assay with HLA-B*07:02 [4] is 8.06; in the assay with HLA-A*26:01 [5] it was not above 4.70; in the assay with HLA-B*15:01 (source organism: Pan troglodytes), not above 4.70; in the assay with HLA-B*51:01 [6], not above 4.70.

On to FSRENSYSGV, for which the pKd with HLA-B*51:01 [7] (setting [9]) is not above 4.35.

As for FTVIALFLA, the values for the pKd with HLA-A*02:06 (setting [11]) and with HLA-A*68:02 (setting [11]) were 8.50 and 6.87, respectively.

Regarding TALTGATEI, the negative logarithm of the Kd (pKd) with HLA-B*51:01 [7] (setting [12]) was 6.21.

As to CEMNHVNSM, the pKd with HLA-B*18:01 (setting [13]) is 6.33; with HLA-B*40:01 [8] (setting [13]) it was 5.53; with HLA-B*40:02 (setting [13]), 7.17; in the assay with HLA-B*44:02 (setting [13]), 6.75; with HLA-B*44:03 (setting [13]), 6.02; with HLA-B*45:01 (setting [13]), 6.67.

Consider AETGSQGVY, for which the pKd with HLA-B*18:01 (setting [14]) was 5.18; with HLA-B*40:01 [8] (setting [14]), 4.80; in the assay with HLA-B*40:02 (setting [14]), 6.20; with HLA-B*44:02 (setting [14]) it was 6.57; with HLA-B*44:03 (setting [14]), 6.64; with HLA-B*45:01 (setting [14]), 6.68.

With VPNYNMIIM, the pKd was 7.27 with HLA-B*07:02 [3] (setting [11]), 7.87 in the assay with HLA-B*35:01 (setting [11]) and 6.06 in the assay with HLA-B*51:01 [7] (setting [11]).

Turning to TPQAPTSEIQ, the pKd with HLA-B*07:02 [3] (setting [11]) is 6.09.

For the sequence ESPSKLASAI, the pKd with HLA-A*26:01 [2] (setting [12]) was not above 4.18; in the assay with HLA-A*68:02 (setting [12]) it was 7.13.

On to WEVGKPRPPL, for which the pKd with HLA-B*18:01 (setting [15]) is not above 4.62; with HLA-B*40:01 [8] (setting [15]), 7.80; with HLA-B*40:02 (setting [15]), 7.73; in the assay with HLA-B*44:02 (setting [15]) it was 5.23; with HLA-B*44:03 (setting [15]), 5.14; with HLA-B*45:01 (setting [15]) it was not above 4.22.

Turning to DEADLDEILL, the pKd in the assay with HLA-B*18:01 (setting [16]) is 5.77; in the assay with HLA-B*40:01 [8] (setting [16]) it was 4.74; with HLA-B*40:02 (setting [16]) it was 5.23; in the assay with HLA-B*44:02 (setting [16]), not above 4.34; in the assay with HLA-B*44:03 (setting [16]), not above 4.57; with HLA-B*45:01 (setting [16]), not above 4.35.

ANNKVYEAY gave a pKd in the assay with HLA-B*15:01 (source organism: Escherichia coli str. K-12 substr. MG1655) of 6.30.

Take RPISEKEENM: the figures for the negative logarithm of the Kd (pKd) with HLA-B*07:02 [3] (setting [9]) and with HLA-B*35:01 (setting [9]) were 6.87 and 6.30, respectively.

As for FANYKFTLV, the negative logarithm of the Kd (pKd) with HLA-A*02:02 is 7.13; with HLA-A*02:03 it was 9.22; with HLA-A*02:06 (setting [17]), 9.33; in the assay with HLA-A*68:02 (setting [17]) it was 7.75.

With GENAVIPKG, the pKd in the assay with HLA-B*18:01 (setting [15]) was not above 4.11; with HLA-B*40:01 [8] (setting [15]) it was not above 4.12; with HLA-B*40:02 (setting [15]) it was 6.04; with HLA-B*44:02 (setting [15]) it was 5.69; in the assay with HLA-B*44:03 (setting [15]) it was 5.65; with HLA-B*45:01 (setting [15]) it was 6.08.

As to PPFGESYIV, the pKd with HLA-B*51:01 [7] (setting [11]) was 5.01.

For the sequence EAAGIFMTA, the pKd in the assay with HLA-A*68:02 (setting [12]) is 9.43.

On to EVSETQHGTI, for which the pKd with HLA-A*68:02 (setting [9]) was 6.71.
